The text below walks through data of PMC5259782, “Allosteric Inhibition of Phosphoenolpyruvate Carboxylases is Determined by a Single Amino Acid Residue in Cyanobacteria” (Scientific Reports, 2017).

For series [1], the target named is T1, SyPEPC (Synechocystis sp. PCC 6803, UniProt P74299).
T1 construct: gene ppc
T1 sequence (P74299 1-1034): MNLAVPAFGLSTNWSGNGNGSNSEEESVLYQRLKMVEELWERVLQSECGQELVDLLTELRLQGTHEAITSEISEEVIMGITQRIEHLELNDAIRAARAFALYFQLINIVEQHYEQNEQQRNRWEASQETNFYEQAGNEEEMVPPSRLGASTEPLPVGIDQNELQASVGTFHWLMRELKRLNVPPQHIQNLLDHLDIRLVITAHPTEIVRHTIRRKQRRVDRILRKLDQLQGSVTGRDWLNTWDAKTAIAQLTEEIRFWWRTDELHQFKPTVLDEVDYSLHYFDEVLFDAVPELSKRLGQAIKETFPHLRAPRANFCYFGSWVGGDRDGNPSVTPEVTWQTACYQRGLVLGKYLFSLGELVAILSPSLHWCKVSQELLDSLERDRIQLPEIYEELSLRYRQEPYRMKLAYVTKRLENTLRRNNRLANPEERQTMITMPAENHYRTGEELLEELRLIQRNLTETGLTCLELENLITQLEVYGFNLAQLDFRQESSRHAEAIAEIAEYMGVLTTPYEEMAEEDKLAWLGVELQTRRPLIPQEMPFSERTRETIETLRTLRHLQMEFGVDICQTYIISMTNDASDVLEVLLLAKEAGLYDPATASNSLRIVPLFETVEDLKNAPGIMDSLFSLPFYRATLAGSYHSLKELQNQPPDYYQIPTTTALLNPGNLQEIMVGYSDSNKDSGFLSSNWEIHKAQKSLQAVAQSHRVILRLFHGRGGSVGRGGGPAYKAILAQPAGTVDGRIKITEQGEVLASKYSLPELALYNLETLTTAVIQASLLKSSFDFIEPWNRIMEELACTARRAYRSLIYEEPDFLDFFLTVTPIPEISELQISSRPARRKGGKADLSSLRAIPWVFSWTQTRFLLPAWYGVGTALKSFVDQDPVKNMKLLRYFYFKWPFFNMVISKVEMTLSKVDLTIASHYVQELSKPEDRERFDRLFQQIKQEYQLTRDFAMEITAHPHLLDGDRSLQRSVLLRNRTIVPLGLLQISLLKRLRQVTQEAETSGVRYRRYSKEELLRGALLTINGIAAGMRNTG
Put plainly: malate dehydrogenase-coupled NADH assay, residual activity. The class given is biochemical. The settings on record: read-out: SyPEPC activity (in vitro). The text has this: malate dehydrogenase-coupled NADH assay, residual activity on SyPEPC

Another series addresses T2, AnPEPC (Nostoc sp. PCC 7120 = FACHB-418, UniProt P28594).
T2 construct: gene ppc
The series is described as above. The format is biochemical. The settings on record: read-out: % activity remaining at 1 mM.

Series [2] addresses T3, SyPEPC (Synechocystis sp. PCC 6803, UniProt P74299, E954K).
T3 construct: gene ppc
The series is described as above. The settings on record: fumarate; allosteric. The class given is biochemical.

Substrate in series [3]: C=C(OP(=O)(O)O)C(=O)O
As to the kind of experiment: malate dehydrogenase-coupled NADH assay (A340), Lineweaver-Burk. The format is biochemical, Synechocystis sp. PCC 6803.

Substrate in the series “purified protein”: O=C(O)O
Put plainly: purified protein. The following applies: PEP.

Substrate in series [4]: C=C(OP(=O)(O)O)C(=O)O
As to the kind of experiment: malate dehydrogenase-coupled NADH assay (A340), Lineweaver-Burk. The format is biochemical, Nostoc sp. PCC 7120 = FACHB-418.

The remaining activity is the signal under treatment as a percentage of the control signal. One may read the Km as the substrate concentration at which the rate is half of its maximum.

As for `O=C(O)C[C@H](O)C(=O)O` [malate], on SyPEPC [1], the activity at 1000 µM is 77.1 ± 6.3%. On AnPEPC, the remaining activity at 1000 µM was < 30%.
For `O=C(O)/C=C/C(=O)O` [fumarate], the “% activity remaining” value at SyPEPC [2] is “The inhibitory effect of fumarate was also enhanced in SyPEPC_E954K compared with SyPEPC”. Moreover, the activity at 1000 µM at SyPEPC [1] was found to be 75 ± 9.7%.
In the case of `O=C(O)CCC(=O)O` [succinate], the activity at 1000 µM at SyPEPC [1] worked out at 124 ± 12.3%.

B1: SyPEPC (Synechocystis sp. PCC 6803 substr. Kazusa; E954K) (protein)
chain: MNLAVPAFGLSTNWSGNGNGSNSEEESVLYQRLKMVEELWERVLQSECGQELVDLLTELRLQGTHEAITSEISEEVIMGITQRIEHLELNDAIRAARAFALYFQLINIVEQHYEQNEQQRNRWEASQETNFYEQAGNEEEMVPPSRLGASTEPLPVGIDQNELQASVGTFHWLMRELKRLNVPPQHIQNLLDHLDIRLVITAHPTEIVRHTIRRKQRRVDRILRKLDQLQGSVTGRDWLNTWDAKTAIAQLTEEIRFWWRTDELHQFKPTVLDEVDYSLHYFDEVLFDAVPELSKRLGQAIKETFPHLRAPRANFCYFGSWVGGDRDGNPSVTPEVTWQTACYQRGLVLGKYLFSLGELVAILSPSLHWCKVSQELLDSLERDRIQLPEIYEELSLRYRQEPYRMKLAYVTKRLENTLRRNNRLANPEERQTMITMPAENHYRTGEELLEELRLIQRNLTETGLTCLELENLITQLEVYGFNLAQLDFRQESSRHAEAIAEIAEYMGVLTTPYEEMAEEDKLAWLGVELQTRRPLIPQEMPFSERTRETIETLRTLRHLQMEFGVDICQTYIISMTNDASDVLEVLLLAKEAGLYDPATASNSLRIVPLFETVEDLKNAPGIMDSLFSLPFYRATLAGSYHSLKELQNQPPDYYQIPTTTALLNPGNLQEIMVGYSDSNKDSGFLSSNWEIHKAQKSLQAVAQSHRVILRLFHGRGGSVGRGGGPAYKAILAQPAGTVDGRIKITEQGEVLASKYSLPELALYNLETLTTAVIQASLLKSSFDFIEPWNRIMEELACTARRAYRSLIYEEPDFLDFFLTVTPIPEISELQISSRPARRKGGKADLSSLRAIPWVFSWTQTRFLLPAWYGVGTALKSFVDQDPVKNMKLLRYFYFKWPFFNMVISKVEMTLSKVDLTIASHYVQELSKPEDRERFDRLFQQIKQEYQLTRDFAMKITAHPHLLDGDRSLQRSVLLRNRTIVPLGLLQISLLKRLRQVTQEAETSGVRYRRYSKEELLRGALLTINGIAAGMRNTG
In the case of B1, the Km in series [3] (50 mM NaHCO3, 10 mM MgCl2) was determined as 820 µM; in the series “purified protein” (10 mM MgCl2), 760 µM.

B2: SyPEPC (Synechocystis sp. PCC 6803 substr. Kazusa) (protein)
chain: MNLAVPAFGLSTNWSGNGNGSNSEEESVLYQRLKMVEELWERVLQSECGQELVDLLTELRLQGTHEAITSEISEEVIMGITQRIEHLELNDAIRAARAFALYFQLINIVEQHYEQNEQQRNRWEASQETNFYEQAGNEEEMVPPSRLGASTEPLPVGIDQNELQASVGTFHWLMRELKRLNVPPQHIQNLLDHLDIRLVITAHPTEIVRHTIRRKQRRVDRILRKLDQLQGSVTGRDWLNTWDAKTAIAQLTEEIRFWWRTDELHQFKPTVLDEVDYSLHYFDEVLFDAVPELSKRLGQAIKETFPHLRAPRANFCYFGSWVGGDRDGNPSVTPEVTWQTACYQRGLVLGKYLFSLGELVAILSPSLHWCKVSQELLDSLERDRIQLPEIYEELSLRYRQEPYRMKLAYVTKRLENTLRRNNRLANPEERQTMITMPAENHYRTGEELLEELRLIQRNLTETGLTCLELENLITQLEVYGFNLAQLDFRQESSRHAEAIAEIAEYMGVLTTPYEEMAEEDKLAWLGVELQTRRPLIPQEMPFSERTRETIETLRTLRHLQMEFGVDICQTYIISMTNDASDVLEVLLLAKEAGLYDPATASNSLRIVPLFETVEDLKNAPGIMDSLFSLPFYRATLAGSYHSLKELQNQPPDYYQIPTTTALLNPGNLQEIMVGYSDSNKDSGFLSSNWEIHKAQKSLQAVAQSHRVILRLFHGRGGSVGRGGGPAYKAILAQPAGTVDGRIKITEQGEVLASKYSLPELALYNLETLTTAVIQASLLKSSFDFIEPWNRIMEELACTARRAYRSLIYEEPDFLDFFLTVTPIPEISELQISSRPARRKGGKADLSSLRAIPWVFSWTQTRFLLPAWYGVGTALKSFVDQDPVKNMKLLRYFYFKWPFFNMVISKVEMTLSKVDLTIASHYVQELSKPEDRERFDRLFQQIKQEYQLTRDFAMEITAHPHLLDGDRSLQRSVLLRNRTIVPLGLLQISLLKRLRQVTQEAETSGVRYRRYSKEELLRGALLTINGIAAGMRNTG
In the case of B2, the Km in series [3] (50 mM NaHCO3, 10 mM MgCl2, pH 7.3, 30 °C) is 340 µM; in the series “purified protein” (10 mM MgCl2, pH 7.3, 30 °C, pH 7.3, 30.0 °C), 800 µM.

B3: AnPEPC (Nostoc sp. PCC 7120 = FACHB-418) (protein)
chain: MGSVLYSLSESANLYPASELFLRHRLQIVEELWESVLRQECGQNMVDLLRQLRDLCSPEGQATKDQAVSAVKLIEQLNINEAIRAARAFALYFQLINIIEQEYEQRQQLTRYSDLEAETAPLNGSENITSSSNHNEDDVIFNRGLGTDFLGKNWTNRGQGKQKGTFAALFPLLSKLNVPPQQIQRLISQLDVRLVFTAHPTEIVRHTIRDKQRQVVDLLQQLDEVENRAKDGGGYPWEAGEIREKLLEEIRLWWRTDELHQFKPTVLDEVDYALHYFQEVLFDGIPQLYKRFKYALNQTFSWLEPPSKDFCSFGSWVGSDRDGNPSVTPEITWQTACYQRKMVLERYIKSVTQLIELLSISMHWSDVLPDLLESLELDQSQLSEVYDALALRYRQEPYRLKLAYVLKRLENTRDRNLALYKGETPTNEDSPMYRSGSEFLAELRLIQHNLTETGLSCRELDNLICQVEIFDFNLTKLDIRQESTRHSDALNEILDYLQLLPQPYNDLSEEQRVAWLTTELQTRRPLISSELPFSDKTNDVIKTFRVVRSLQQEFGINICQTYIISMCRQVSDVLEVLLLAKEARLFDPAIAVGTIQVVPLFETVEDLQRSRSVMRQLFELPLYRALLAGGYKNTEVKVPNTELTPQSPAPSPQSVLTPDLQEVMLGYSDSNKDSGFLSSNWEIHKAQKSLQQIAEEYGVNLRIFHGRGGSVGRGGGPAHEAILAQPGHSINGRIKITEQGEVLASKYSLLDLALYNLETITTAVIQASLLRTGFDDIEPWNEIMEELAARSRQHYRGLIYEQPDFIDFFHQVTPIEEISQLQISSRPARRPSGKKDLSSLRAIPWVFSWTQTRFLLPSWYGVGTALQEFFNEEPEEHLKLMRYFYVKWPFFKMVISKVEMTLAKVDMQMAGHYVQELSDPEDKPRFEKVFEQIANEYYLTRDLVLKITDHGRLLDGDPVLQRSVQLRNGTIVPLGFIQVSLLKRLRQSKNNTATSGVIHSRYSKGELLRGALLTINGIAAGMRNTG
With B3, the Km in series [4] (50 mM NaHCO3, 10 mM MgCl2, pH and temperature not stated (optimum pH 8.0, 35 °C)) was 1100 µM; in “purified protein” (10 mM MgCl2, pH and temperature not stated (optimum pH 8.0, 35 °C), pH 8.0, 35.0 °C), 240 µM.

B4: AnPEPC (Nostoc sp. PCC 7120 = FACHB-418; K946E) (protein)
chain: MGSVLYSLSESANLYPASELFLRHRLQIVEELWESVLRQECGQNMVDLLRQLRDLCSPEGQATKDQAVSAVKLIEQLNINEAIRAARAFALYFQLINIIEQEYEQRQQLTRYSDLEAETAPLNGSENITSSSNHNEDDVIFNRGLGTDFLGKNWTNRGQGKQKGTFAALFPLLSKLNVPPQQIQRLISQLDVRLVFTAHPTEIVRHTIRDKQRQVVDLLQQLDEVENRAKDGGGYPWEAGEIREKLLEEIRLWWRTDELHQFKPTVLDEVDYALHYFQEVLFDGIPQLYKRFKYALNQTFSWLEPPSKDFCSFGSWVGSDRDGNPSVTPEITWQTACYQRKMVLERYIKSVTQLIELLSISMHWSDVLPDLLESLELDQSQLSEVYDALALRYRQEPYRLKLAYVLKRLENTRDRNLALYKGETPTNEDSPMYRSGSEFLAELRLIQHNLTETGLSCRELDNLICQVEIFDFNLTKLDIRQESTRHSDALNEILDYLQLLPQPYNDLSEEQRVAWLTTELQTRRPLISSELPFSDKTNDVIKTFRVVRSLQQEFGINICQTYIISMCRQVSDVLEVLLLAKEARLFDPAIAVGTIQVVPLFETVEDLQRSRSVMRQLFELPLYRALLAGGYKNTEVKVPNTELTPQSPAPSPQSVLTPDLQEVMLGYSDSNKDSGFLSSNWEIHKAQKSLQQIAEEYGVNLRIFHGRGGSVGRGGGPAHEAILAQPGHSINGRIKITEQGEVLASKYSLLDLALYNLETITTAVIQASLLRTGFDDIEPWNEIMEELAARSRQHYRGLIYEQPDFIDFFHQVTPIEEISQLQISSRPARRPSGKKDLSSLRAIPWVFSWTQTRFLLPSWYGVGTALQEFFNEEPEEHLKLMRYFYVKWPFFKMVISKVEMTLAKVDMQMAGHYVQELSDPEDKPRFEKVFEQIANEYYLTRDLVLEITDHGRLLDGDPVLQRSVQLRNGTIVPLGFIQVSLLKRLRQSKNNTATSGVIHSRYSKGELLRGALLTINGIAAGMRNTG
Regarding B4, the Km was 800 µM in series [4] (50 mM NaHCO3, 10 mM MgCl2) and 250 µM in “purified protein” (10 mM MgCl2).
